# Results published in patent US8071348B2, “Protein tyrosine phosphatase substrate-trapping double mutant and uses thereof” (Albert Einstein College of Medicine of Yeshiva University, priority 2002, dated 2011).
# [ ]: non-standard residue; d: D form. F2Pmp = N[C@@H](Cc1ccc(C(F)(F)P(=O)(O)O)cc1)C(=O)O
# T1: EGFR^988-998 peptide, DADEpYLIPQQG (Homo sapiens, UniProt P18031, D181A/Q262A)
# T1 construct: The catalytic domain of PTP1B (residues 1 to 321) was used for in vitro study; made in house; host or cells: E. coli (pT7-7 plasmids)
# T1 sequence (P18031 1-321 D181A/Q262A): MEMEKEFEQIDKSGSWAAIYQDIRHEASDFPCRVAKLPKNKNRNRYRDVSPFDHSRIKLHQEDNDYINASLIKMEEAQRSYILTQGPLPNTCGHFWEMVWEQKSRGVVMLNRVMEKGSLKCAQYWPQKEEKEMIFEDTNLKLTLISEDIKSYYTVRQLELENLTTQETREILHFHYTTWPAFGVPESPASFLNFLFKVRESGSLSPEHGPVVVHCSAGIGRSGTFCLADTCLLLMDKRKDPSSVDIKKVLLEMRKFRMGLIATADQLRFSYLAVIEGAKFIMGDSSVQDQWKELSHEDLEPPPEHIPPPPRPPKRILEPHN
# B1: PTP1B/D181A/Q262A, catalytic domain (residues 1 to 321) (enzyme, human, UniProt P18031 1-321, looked up)
# chain: T1 sequence (P18031 1-321 D181A/Q262A)
# notes: range 1-321; Used in vitro (ITC, kinetics); also called PTP1B substrate-trapping double mutant
# How the values were obtained:
# [1] = system: EGFR^988-998 peptide, DADEpYLIPQQG; test: Kinetic constants for PTP1B-catalyzed hydrolysis of pTyr-containing EGFR988-998 peptide; format: biochemical; details: EGFR988-998 peptide as substrate; 25° C. and pH 7.0
# Procedure, shortened: (§1)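 PTP1B catalytic domain (residues 1–321), wild-type or mutant, expressed in E. coli. Continuous assay at 25° C., pH 7.0, in 50 mM 3,3-dimethylglutarate with 1 mM EDTA (ionic strength 0.15 M). Dephosphorylation followed by absorbance increase at 282 nm or fluorescence at 305 nm to obtain kcat and Km.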
# [2] = target: T1, EGFR^988-998 peptide, DADEpYLIPQQG; test: as above; format: biochemical; details: EGFR988-998 peptide as substrate
# Procedure, shortened: as §1
molecule,measurement,setting,value
B1,Km,[1],51 ± 4 µM
same,kcat,[1],(2.7 ± 0.1) × 10^−3 s^−
same,"kcat, fold lower than D181A",[2],24 fold
